Patent US20090238821A1 (Eli Lilly, published 2009)

How the values were obtained:
[1] = target: T1, β-amyloid peptide (1-42) conjugated to BSA (UniProt P05067 672-713, C-terminal Cys43 coupled to maleimide-activated bovine serum albumin); assay: competitive ELISA on Aβ1-42-BSA, competitor of biotinylated Mu266 (0.3 µg/ml), second set
T1 construct: domain: Aβ1-42; Coated on ELISA plates at 10 µg/mL; the carrier BSA is not written as a chain; also called Aβ1-42-BSA conjugate; Aβ1-42-Cys-BSA conjugate
Experimental: (§1) The Aβ₁₋₄₂-BSA conjugate was prepared by dissolving 7.5 mg of Aβ₁₋₄₂-Cys₄₃(C-terminal cysteine Aβ₁₋₄₂, AnaSpec) in 500 μL of dimethylsulfoxide, and then immediately adding 1,500 μL of distilled water. Two (2) milligrams of maleimide-activated bovine serum albumin (Pierce) was dissolved in 200 μL of distilled water. The two solutions were combined, thoroughly mixed, and allowed to stand at room temperature for two (2) hours. A gel chromatography column was used to separate unreacted peptide from Aβ₁₋₄₂-Cys-BSA conjugate.
(§2) After washing the wells with phosphate buffered saline (PBS) containing 0.1% Tween 20 (Washing Buffer) using an ELISA plate washer, the wells were blocked by adding 300 μL of SuperBlock reagent (Pierce) per well. After 30 minutes of blocking, the wells were washed Washing Buffer and excess liquid was removed.
(§3) As a background control, 100 μl of ELISA Buffer was added. The ELISA plate was incubated at room temperature for 90 min. After washing the wells with Washing Buffer, 100 μl of 1 μg/ml HRP-conjugated streptavidin (Cat # 21124, Pierce) was added to each well. […] Absorbance was read at 415 nm. The absorbances were plotted against the log of the competitor concentration, curves were fit to the data points (using Prism) and the IC50 was determined for each antibody using methods well-known in the art.

[2] = target: T2, Amyloid-beta 1-42 (UniProt P05067 672-713); assay: BIAcore, essentially as in Example 15
T2 construct: domain: Amyloid-beta 1-42; Numbers 1-42 count on the Aβ peptide, not on the APP entry; also called Aβ42; Aβ1-42
Experimental: Antibody affinity (KD=Kd/Ka) was determined using a BIAcore biosensor 2000 and data analyzed with BIAevaluation (v. 3.1) software. A capture antibody (rabbit anti-mouse) was coupled via free amine groups to carboxyl groups on flow cell 2 of a biosensor chip (CM5) using N-ethyl-N-dimethylaminopropyl carbodiimide and N-hydroxysuccinimide (EDC/NHS). A non-specific rabbit IgG was coupled to flow cell 1 as a background control. Monoclonal antibodies were captured to yield 300 resonance units (RU). […] To regenerate the chip, bound anti-Aβ antibody was eluted from the chip using a wash with glycine-HCl (pH 2). A control injection containing no amyloid-beta served as a control for baseline subtraction.

[3] = target: T1, β-amyloid peptide (1-42) conjugated to …; assay: competitive ELISA on Aβ1-42-BSA, competitor of biotinylated Mu266 (0.3 µg/ml), first set
Experimental: as §1, §2, §3

IC50 [1]: 4 µg/mL
Kd [2]: 4 pM
IC50 [3]: 7.5 µg/mL
B1: humanized 266 antibody (antibody, human IgG1, kappa, V domains shown)
VH: EVQLVESGGGLVQPGGSLRLSCAASGFTFSRYSMSWVRQAPGKGLELVAQINSVGNSTYYPDTVKGRFTISRDNAKNTLYLQMNSLRAEDTAVYYCASGDYWGQGTLVTVSS
VL: DVVMTQSPLSLPVTLGQPASISCRSSQSLIYSDGNAYLHWFLQKPGQSPRLLIYKVSNRFSGVPDRFSGSGSGTDFTLKISRVEAEDVGVYYCSQSTHVPWTFGQGTKVEIKR
notes: Mature antibody expressed from pVk-Hu266 and pVg1-Hu266 in Sp2/0 cells (clone 1D9), purified on protein A; human kappa and gamma 1 constant regions; also called Hu266
